The values below are quoted from earlier work in paper PMC7396566.

One data set addresses TSLP (Homo sapiens) (UniProt Q969D9).
The next data set deals with IL-7Rα (Homo sapiens) (UniProt P16871).
Data set [1] has as its target TSLP:TSLPR complex (Homo sapiens) (UniProt Q969D9).

TSLPR, sequence (Q9HC73 23-231): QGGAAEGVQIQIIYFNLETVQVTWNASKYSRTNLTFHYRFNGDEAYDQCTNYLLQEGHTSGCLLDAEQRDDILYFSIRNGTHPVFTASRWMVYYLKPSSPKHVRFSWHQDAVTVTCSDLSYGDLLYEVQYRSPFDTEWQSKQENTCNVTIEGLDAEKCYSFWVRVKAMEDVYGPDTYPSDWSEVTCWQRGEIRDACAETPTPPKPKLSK

As to TSLPR (from UniProt Q9HC73), the dissociation constant Kd in the data set with TSLP (Homo sapiens) is 0.032 µM; with IL-7Rα (Homo sapiens), 20 µM.

On to IL-7Rα (from UniProt P16871), for which the Kd in data set [1] was 0.029 µM.

By Kd is commonly meant the constant that tells how readily two partners part at equilibrium.
